{"source": "patent US20250237651A1", "about": "(ASAHI KASEI, published 2025)", "binders": {"B1": {"name": "Antibody NG1 (antibody, V domains shown)", "VH": "EVQLQQSGAELVKPGASVKLSCTASGFNIKDTYIYWVKQRPEQGLEWIGRIDPANGHTKCDPKFQGKATITSDTSSNTAYLQLNSLTSEDTAVYYCSKGYFHYWGQGTTLTVSS", "VL": "DIQMTQSPSSLSASLGERVSLTCRASQEISGYLSWLQQKPDGTIKRLIYAASTLDSGVPKRFSGSRSGSDYSLTISSLESEDFADYYCQQYDSYPWTFGGGTKLEIK", "notes": "Mouse hybridoma monoclonal antibody raised against polypeptide 1; detected with an anti-IgG antibody; HRP-labelled or gold-colloid-labelled when used as detection antibody; also called Antibody species A"}}, "key": {"[1]": {"target": "T1, Polypeptide 5 (all of the L7/L12 amino acid sequence of Neisseria meningitidis) (Neisseria meningitidis, UniProt A1KRG5 1-123)", "T1 construct": "Differs from Neisseria gonorrhoeae L7/L12 only at residue 115 (glutamic acid instead of alanine); Purified as a tagged fusion protein", "T1 sequence": "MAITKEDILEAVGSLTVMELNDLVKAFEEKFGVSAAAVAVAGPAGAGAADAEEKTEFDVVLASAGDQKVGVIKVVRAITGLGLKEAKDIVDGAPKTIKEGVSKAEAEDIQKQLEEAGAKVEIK", "assay": "ELISA, polypeptide solid-phased at 2 ug/mL, HRP-labeled anti-IgG"}, "[2]": {"target": "T2, Polypeptide 4 (part of Neisseria gonorrhoeae L7/L12 lacking amino acid residues 102 to 123) (Neisseria gonorrhoeae, UniProt A1KRG5 1-101)", "T2 construct": "Purified as a tagged fusion protein", "T2 sequence": "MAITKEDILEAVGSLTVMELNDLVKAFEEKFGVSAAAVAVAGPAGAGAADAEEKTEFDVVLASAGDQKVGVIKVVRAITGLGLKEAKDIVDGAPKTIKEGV", "assay": "ELISA, polypeptide solid-phased at 2 ug/mL, HRP-labeled anti-IgG"}, "[3]": {"target": "T3, Ribosomal protein L7/L12 of Neisseria meningitidis (in extracted sample solution of the bacteria) (Neisseria meningitidis, UniProt A1KRG5 1-123)", "T3 construct": "also called Neisseria meningitidis L7/L12", "T3 sequence": "T1 sequence", "assay": "sandwich ELISA, capture NG3, HRP-labelled NG1, N. meningitidis extract"}, "[4]": {"target": "T4, Ribosomal protein L7/L12 of Neisseria gonorrhoeae (in extracted sample solution of the bacteria) (Neisseria gonorrhoeae, UniProt B4RQW1 1-123)", "T4 construct": "also called Neisseria gonorrhoeae L7/L12; Neisseria gonorrhoeae-derived antigen", "T4 sequence": "T1 sequence with E115A", "assay": "sandwich ELISA, primary (capture) NG1, HRP-labelled secondary NG3, N. gonorrhoeae extract 1e6 cfu/mL; Absorbance difference A 1.0 or greater"}, "[5]": {"target": "T5, Polypeptide 3 (part of Neisseria gonorrhoeae L7/L12 lacking amino acid residues 1 to 63) (Neisseria gonorrhoeae, UniProt B4RQW1 64-123)", "T5 construct": "Purified as a tagged fusion protein", "T5 sequence": "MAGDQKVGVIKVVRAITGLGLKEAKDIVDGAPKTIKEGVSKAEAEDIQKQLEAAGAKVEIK", "assay": "ELISA, polypeptide solid-phased at 2 ug/mL, antibody 100 ng/ml; + = absorbance 450 nm 0.1 or greater"}, "[6]": {"target": "T6, Polypeptide 2 (part of Neisseria gonorrhoeae L7/L12 lacking amino acid residues 1 to 14) (Neisseria gonorrhoeae, UniProt B4RQW1 15-123)", "T6 construct": "Purified as a tagged fusion protein", "assay": "ELISA, polypeptide solid-phased at 2 ug/mL, antibody 100 ng/ml; + = absorbance 450 nm 0.1 or greater"}, "[7]": {"target": "T7, Polypeptide 1 (all of the amino acid sequence of ribosomal protein L7/L12 of Neisseria gonorrhoeae) (Neisseria gonorrhoeae, UniProt B4RQW1 1-123)", "T7 construct": "Expressed in E. coli and purified as a fusion protein through a vector-derived tag", "T7 sequence": "T1 sequence with E115A", "assay": "ELISA, polypeptide solid-phased at 2 ug/mL, antibody 100 ng/ml; + = absorbance 450 nm 0.1 or greater"}}, "note": "Where a chain is given by its changes, count along the chain named.", "data": [{"binder": "B1", "values": [{"measurement": "binding result", "setting": "[1]", "result": "no binding"}, {"measurement": "binding result", "setting": "[2]", "result": "no binding"}, {"measurement": "binding result", "setting": "[3]", "result": "no binding"}, {"measurement": "binding result", "setting": "[4]", "result": "binds"}, {"measurement": "binding result", "setting": "[5]", "result": "binds"}, {"measurement": "binding result", "setting": "[6]", "result": "binds"}, {"measurement": "binding result", "setting": "[7]", "result": "binds"}]}]}
